Assays:
Assay in all cases: SPR, Fab over captured mutant LAG-3-Fc
[1] = molecular target: human LAG-3 domain 1-2 Fc fusion, chimeric construct #3 (mutated region AA 40-41) (human) (UniProt P18627)
[2] = molecular target: human LAG-3 domain 1-2 Fc fusion, point mutation #8 Q51A (human) (UniProt P18627)
[3] = molecular target: human LAG-3 domain 1-2 Fc fusion, chimeric construct #18 (mutated region AA 114-119) (human) (UniProt P18627)
[4] = molecular target: human LAG-3 domain 1-2 Fc fusion, point mutation #53 L109A (human) (UniProt P18627)
[5] = molecular target: human LAG-3 domain 1-2 Fc fusion, point mutation #24 G77A (human) (UniProt P18627)
[6] = molecular target: human LAG-3 domain 1-2 Fc fusion, chimeric construct #9 (mutated region AA 66-71) (human) (UniProt P18627)
[7] = molecular target: human LAG-3 domain 1-2 Fc fusion, point mutation #15 Q64A (human) (UniProt P18627)
[8] = molecular target: human LAG-3 domain 1-2 Fc fusion, point mutation #40 G93A (human) (UniProt P18627)
[9] = molecular target: human LAG-3 domain 1-2 Fc fusion, point mutation #64 E124A (human) (UniProt P18627)
[10] = molecular target: human LAG-3 domain 1-2 Fc fusion, chimeric construct #20 (mutated region AA 123-131) (human) (UniProt P18627)
[11] = molecular target: human LAG-3 domain 1-2 Fc fusion, point mutation #30 G83A (human) (UniProt P18627)
[12] = molecular target: human LAG-3 domain 1-2 Fc fusion, point mutation #48 V101A (human) (UniProt P18627)
[13] = molecular target: human LAG-3 domain 1-2 Fc fusion, chimeric construct #2 (mutated region AA 29-30) (human) (UniProt P18627)
[14] = molecular target: human LAG-3 domain 1-2 Fc fusion, chimeric construct #6 (mutated region AA 48-55) (human) (UniProt P18627)
[15] = molecular target: human LAG-3 domain 1-2 Fc fusion, point mutation #46 Y99A (human) (UniProt P18627)
[16] = molecular target: human LAG-3 domain 1-2 Fc fusion, chimeric construct #16 (mutated region AA 98-105) (human) (UniProt P18627)
[17] = molecular target: human LAG-3 domain 1-2 Fc fusion, point mutation #73 R137A (human) (UniProt P18627)
[18] = molecular target: human LAG-3 domain 1-2 Fc fusion, point mutation #66 G126A (human) (UniProt P18627)
[19] = molecular target: human LAG-3 domain 1-2 Fc fusion, chimeric construct #5 (mutated region AA 46-51) (human) (UniProt P18627)
[20] = molecular target: human LAG-3 domain 1-2 Fc fusion, chimeric construct #17 (mutated region AA 114-117) (human) (UniProt P18627)
[21] = molecular target: human LAG-3 domain 1-2 Fc fusion, point mutation #14 T62A (human) (UniProt P18627)
[22] = molecular target: human LAG-3 domain 1-2 Fc fusion, point mutation #54 R110A (human) (UniProt P18627)
[23] = molecular target: human LAG-3 domain 1-2 Fc fusion, point mutation #11 L56A (human) (UniProt P18627)
[24] = molecular target: human LAG-3 domain 1-2 Fc fusion, point mutation #17 Q66A (human) (UniProt P18627)
[25] = molecular target: human LAG-3 domain 1-2 Fc fusion, point mutation #6 T47A (human) (UniProt P18627)
[26] = molecular target: human LAG-3 domain 1-2 Fc fusion, chimeric construct #27 (mutated region AA 161-166) (human) (UniProt P18627)
[27] = molecular target: human LAG-3 domain 1-2 Fc fusion, point mutation #10 S54A (human) (UniProt P18627)
[28] = molecular target: human LAG-3 domain 1-2 Fc fusion, point mutation #78 R154A (human) (UniProt P18627)
[29] = molecular target: human LAG-3 domain 1-2 Fc fusion, point mutation #5 P46A (human) (UniProt P18627)
[30] = molecular target: human LAG-3 domain 1-2 Fc fusion, point mutation #33 P86A (human) (UniProt P18627)
[31] = molecular target: human LAG-3 domain 1-2 Fc fusion, point mutation #51 G107A (human) (UniProt P18627)
[32] = molecular target: human LAG-3 domain 1-2 Fc fusion, point mutation #50 P106A (human) (UniProt P18627)
[33] = molecular target: human LAG-3 domain 1-2 Fc fusion, point mutation #22 A75S (human) (UniProt P18627)
Chain of human LAG-3 domain 1-2 Fc fusion, point mutation #22 A75S (human) (P18627 23-266 A75S): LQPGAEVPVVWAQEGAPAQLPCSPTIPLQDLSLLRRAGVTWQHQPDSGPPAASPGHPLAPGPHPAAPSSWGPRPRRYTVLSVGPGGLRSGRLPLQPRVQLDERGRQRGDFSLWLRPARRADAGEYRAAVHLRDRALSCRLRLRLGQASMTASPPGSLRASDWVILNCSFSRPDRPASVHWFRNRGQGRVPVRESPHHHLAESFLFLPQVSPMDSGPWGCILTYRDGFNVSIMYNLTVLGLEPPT

Chain of human LAG-3 domain 1-2 Fc fusion, chimeric construct #3 (mutated region AA 40-41) (human) (P18627 other isoform, or with tags, fused parts or gaps mutant): as the sequence (P18627 23-266 A75S) above, with A18V, Q19H, S53A counted along it
Chain of human LAG-3 domain 1-2 Fc fusion, chimeric construct #18 (mutated region AA 114-119) (human) (P18627 other isoform, or with tags, fused parts or gaps mutant): as the sequence (P18627 23-266 A75S) above, with S53A, L92Q, Q95L, P96S, R97H counted along it
Chain of human LAG-3 domain 1-2 Fc fusion, point mutation #51 G107A (human) (P18627 23-266 G107A): as the sequence (P18627 23-266 A75S) above, with S53A, G85A counted along it
Chain of human LAG-3 domain 1-2 Fc fusion, point mutation #30 G83A (human) (P18627 23-266 G83A): as the sequence (P18627 23-266 A75S) above, with S53A, G61A counted along it
Chain of human LAG-3 domain 1-2 Fc fusion, point mutation #5 P46A (human) (P18627 23-266 P46A): as the sequence (P18627 23-266 A75S) above, with P24A, S53A counted along it
Chain of human LAG-3 domain 1-2 Fc fusion, point mutation #50 P106A (human) (P18627 23-266 P106A): as the sequence (P18627 23-266 A75S) above, with S53A, P84A counted along it
Chain of human LAG-3 domain 1-2 Fc fusion, point mutation #48 V101A (human) (P18627 23-266 V101A): as the sequence (P18627 23-266 A75S) above, with S53A, V79A counted along it
Chain of human LAG-3 domain 1-2 Fc fusion, point mutation #66 G126A (human) (P18627 23-266 G126A): as the sequence (P18627 23-266 A75S) above, with S53A, G104A counted along it
Chain of human LAG-3 domain 1-2 Fc fusion, chimeric construct #6 (mutated region AA 48-55) (human) (P18627 other isoform, or with tags, fused parts or gaps mutant): as the sequence (P18627 23-266 A75S) above, with I26F, L28H, Q29L, L31P, S32N, L33F, S53A counted along it
Chain of human LAG-3 domain 1-2 Fc fusion, point mutation #6 T47A (human) (P18627 23-266 T47A): as the sequence (P18627 23-266 A75S) above, with T25A, S53A counted along it
Chain of human LAG-3 domain 1-2 Fc fusion, point mutation #73 R137A (human) (P18627 23-266 R137A): as the sequence (P18627 23-266 A75S) above, with S53A, R115A counted along it
Chain of human LAG-3 domain 1-2 Fc fusion, point mutation #40 G93A (human) (P18627 23-266 G93A): as the sequence (P18627 23-266 A75S) above, with S53A, G71A counted along it
Chain of human LAG-3 domain 1-2 Fc fusion, point mutation #53 L109A (human) (P18627 23-266 L109A): as the sequence (P18627 23-266 A75S) above, with S53A, L87A counted along it
Chain of human LAG-3 domain 1-2 Fc fusion, chimeric construct #17 (mutated region AA 114-117) (human) (P18627 other isoform, or with tags, fused parts or gaps mutant): as the sequence (P18627 23-266 A75S) above, with S53A, L92Q, Q95L counted along it
Chain of human LAG-3 domain 1-2 Fc fusion, point mutation #15 Q64A (human) (P18627 23-266 Q64A): as the sequence (P18627 23-266 A75S) above, with Q42A, S53A counted along it
Chain of human LAG-3 domain 1-2 Fc fusion, chimeric construct #27 (mutated region AA 161-166) (human) (P18627 other isoform, or with tags, fused parts or gaps mutant): as the sequence (P18627 23-266 A75S) above, with S53A, R139S, L144V counted along it
Chain of human LAG-3 domain 1-2 Fc fusion, point mutation #33 P86A (human) (P18627 23-266 P86A): as the sequence (P18627 23-266 A75S) above, with S53A, P64A counted along it
Chain of human LAG-3 domain 1-2 Fc fusion, chimeric construct #5 (mutated region AA 46-51) (human) (P18627 other isoform, or with tags, fused parts or gaps mutant): as the sequence (P18627 23-266 A75S) above, with P24L, T25E, I26F, L28H, Q29L, S53A counted along it

KD mutant/KD wild type [1]: 1.3 fold
KD mutant/KD wild type [2]: 0.8 fold
KD mutant/KD wild type [3]: 0.8 fold
KD mutant/KD wild type [4]: 0.9 fold
KD mutant/KD wild type [5]: 1 fold
KD mutant/KD wild type [6]: 1.3 fold
KD mutant/KD wild type [7]: 1.3 fold
KD mutant/KD wild type [8]: 6.2 fold
KD mutant/KD wild type [9]: 1.1 fold
KD mutant/KD wild type [10]: 1.3 fold
KD mutant/KD wild type [11]: 1 fold
KD mutant/KD wild type [12]: 1 fold
KD mutant/KD wild type [13]: 1.2 fold
KD mutant/KD wild type [14]: 1.4 fold
KD mutant/KD wild type [15]: 1 fold
KD mutant/KD wild type [16]: 1.7 fold
KD mutant/KD wild type [17]: 1 fold
KD mutant/KD wild type [18]: 0.9 fold
KD mutant/KD wild type [19]: 1.3 fold
KD mutant/KD wild type [20]: 1.3 fold
KD mutant/KD wild type [21]: 1.3 fold
KD mutant/KD wild type [22]: 0.9 fold
KD mutant/KD wild type [23]: 0.9 fold
KD mutant/KD wild type [24]: 0.9 fold
KD mutant/KD wild type [25]: 0.8 fold
KD mutant/KD wild type [26]: 0.8 fold
KD mutant/KD wild type [27]: 0.8 fold
KD mutant/KD wild type [28]: 0.8 fold
KD mutant/KD wild type [29]: 1.1 fold
KD mutant/KD wild type [30]: 2.7 fold
KD mutant/KD wild type [31]: 0.8 fold
KD mutant/KD wild type [32]: 1 fold
KD mutant/KD wild type [33]: 0.9 fold
Substance: Fab fragment of 25F7-Lag3.5 analogue

From patent publication US20220363757A1
